In this data set the test system is ATP. In words: switch fluorescence ratio, 500 uM ATP over buffer (Cy3 cluster intensity, sum of 5 cycles each) (fold (ratio)); higher = stronger signal-on switching upon ATP binding; sequences stand for … in TCGTCGGCAGCGTCAGATGTGTATAAGAGACAGTTTTTTTTTTTTTTTTTTTTTTTTT…TC. Particulars: aptamer strand: ATP DNA aptamer (quencher-CACCTGGGGGAGTATTGCGGAGGAAGG + anchor), 100 nM annealed; ATP concentration: 500 uM. Summed up:
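Exposure to 500 uM ATP lasted 15 min at 22 °C before imaging, and a selection-buffer image was taken beforehand, for Cy3-labelled switching-strand clusters on a modified Illumina MiSeq flow-cell annealed to 100 nM quencher-labelled ATP aptamer. Five buffer/ATP cycles were run with NaOH stripping and re-annealing between them. The fluorescence ratio per cluster is summed target-cycle over summed buffer-cycle Cy3 intensity, averaged per switch-domain sequence. Clusters outside 100-1000 RFU were excluded.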

± gives the standard deviation of the averaged measurements.

This note sets out measurements from the supplement of paper PMC10126150.

Regarding GACTCAGGGG, the switch fluorescence ratio was determined as 1.39 ± 0.56. Next, GACTGCGGAA: 2.04 ± 0.038; GACTGGATAG: 0.983 ± 0.022. The figure for GACTGTAGGA is 1.03 ± 0.0051. Next, GACTGTGAGA: 1 ± 0.034; GACTGTTATG: 0.989 ± 0.024. Turning to GACTTAATGG, the switch fluorescence ratio stood at 0.962 ± 0.051. Turning to GACTTAGTGT, the switch fluorescence ratio was determined as 1.012 ± 0.0036. The figure for GACTTATGAG is 1.01 ± 0.047; for GACTTGAATG it is 0.976 ± 0.011; for GACTTGACTG it is 1.11 ± 0.03. The figure for GACTTGGGTG is 1.02 ± 0.038. Turning to GACTTGTGTA, the switch fluorescence ratio was determined as 0.994 ± 0.016. As to GACTTTAGGG, the switch fluorescence ratio turned out to be 1.02 ± 0.065. Next, GAGAAAAATG: 0.9597 ± 0.0087. Turning to GAGAAAAGGG, the switch fluorescence ratio came out at 1.04 ± 0.037.

Regarding GAGAAAGCTA, the switch fluorescence ratio worked out at 1.031 ± 0.0084. Regarding GAGAAAGGTT, the switch fluorescence ratio turned out to be 1.09 ± 0.2. Consider GAGAACATGG, for which the switch fluorescence ratio was determined as 1.03 ± 0.035.

In the case of GAGAAGGGAC, the switch fluorescence ratio came out at 1.03 ± 0.046.

Consider GAGAATGGGG, for which the switch fluorescence ratio worked out at 0.983 ± 0.024. Next, GAGAATTGTA: 0.97 ± 0.03; GAGACAATTC: 1.06 ± 0.017. For the sequence GAGACGCTTT, the switch fluorescence ratio worked out at 1.04 ± 0.049. With GAGACTATTT, the switch fluorescence ratio was 0.976 ± 0.056. Next, GAGACTGATG: 1.05 ± 0.14; GAGACTTAGA: 1.007 ± 0.0038; GAGACTTGTT: 0.997 ± 0.042.

Consider GAGAGCCGAA, for which the switch fluorescence ratio is 1.02 ± 0.062. In the case of GAGAGCGGGG, the switch fluorescence ratio stood at 0.968 ± 0.033. For GAGAGGGAAT, the switch fluorescence ratio was found to be 1.021 ± 0.0091.

In the case of GAGAGGGGTA, the switch fluorescence ratio stood at 0.974 ± 0.014. The figure for GAGAGGGTAC is 1.03 ± 0.063. The figure for GAGAGTGAAT is 1.01 ± 0.081. Turning to GAGAGTTAAA, the switch fluorescence ratio was 0.976 ± 0.015. The figure for GAGATAAGAG is 1.01 ± 0.022. Next, GAGATAAGCT: 1.04 ± 0.022; GAGATAGAGA: 1.02 ± 0.03; GAGATATTGT: 1.03 ± 0.038. As for GAGATCGTCG, the switch fluorescence ratio was determined as 0.993 ± 0.01. The figure for GAGATCTTGG is 0.9824 ± 0.0045; for GAGATGAGCG it is 0.997 ± 0.035. Take GAGATGCGAG: the switch fluorescence ratio was determined as 0.963 ± 0.021. Next, GAGATGTGCG: 0.9319 ± 0.008; GAGATTGGGT: 1.001 ± 0.0077. For GAGATTTTTT, the switch fluorescence ratio was 1.018 ± 0.0091. Next, GAGCAATTTT: 2.31 ± 0.15; GAGCACAGGT: 2.33 ± 0.12. The figure for GAGCACGTAT is 1.03 ± 0.063; for GAGCCACCAC it is 1.051 ± 0.002; for GAGCCCTCGG it is 0.999 ± 0.023. In the case of GAGCCGGGCC, the switch fluorescence ratio stood at 0.99 ± 0.023.

With GAGCGAGAAG, the switch fluorescence ratio was 1.01 ± 0.028. The figure for GAGCGATGTC is 1.07 ± 0.035.

For the sequence GAGCGCCCGT, the switch fluorescence ratio was 1.01 ± 0.0017. For the sequence GAGCGCCGGG, the switch fluorescence ratio was found to be 1.01 ± 0.017. The figure for GAGCGGGGGT is 1.01 ± 0.013; for GAGCTAGGAG it is 1 ± 0.024. The figure for GAGCTGGGGA is 0.983 ± 0.012; for GAGCTTGCGA it is 1.03 ± 0.044.

In the case of GAGCTTTGAT, the switch fluorescence ratio was 0.996 ± 0.024. On to GAGCTTTGTT, for which the switch fluorescence ratio is 0.984 ± 0.018. As to GAGCTTTTGA, the switch fluorescence ratio came out at 0.971 ± 0.04. As to GAGGAAAGGC, the switch fluorescence ratio worked out at 0.999 ± 0.058. The figure for GAGGAACGTG is 0.967 ± 0.014. Regarding GAGGAAGCGA, the switch fluorescence ratio stood at 1.18 ± 0.059.
